Numbered stars: 1 amine (or outer) side, 2 acyl side, 3 side chain; on linkers, the order of the positions; unused ones are H or OH. Bridge positions count the residues as written; N and C are the ends. Side chains are listed from the residue outwards. Ends that are not written are not given here. * marks the point of attachment. C20 diacid = O=C(O)CCCCCCCCCCCCCCCCCCC(=O)*; γGlu = O=C(O)[C@H](CCC(=O)[*:2])N[*:1]
T1: human amylin receptor (amylin 3(a) receptor: human calcitonin receptor plus RAMP-3) (human, UniProt P30988 25-474; O60896 24-148, limits assumed)
T1 sequence (looked up) 1: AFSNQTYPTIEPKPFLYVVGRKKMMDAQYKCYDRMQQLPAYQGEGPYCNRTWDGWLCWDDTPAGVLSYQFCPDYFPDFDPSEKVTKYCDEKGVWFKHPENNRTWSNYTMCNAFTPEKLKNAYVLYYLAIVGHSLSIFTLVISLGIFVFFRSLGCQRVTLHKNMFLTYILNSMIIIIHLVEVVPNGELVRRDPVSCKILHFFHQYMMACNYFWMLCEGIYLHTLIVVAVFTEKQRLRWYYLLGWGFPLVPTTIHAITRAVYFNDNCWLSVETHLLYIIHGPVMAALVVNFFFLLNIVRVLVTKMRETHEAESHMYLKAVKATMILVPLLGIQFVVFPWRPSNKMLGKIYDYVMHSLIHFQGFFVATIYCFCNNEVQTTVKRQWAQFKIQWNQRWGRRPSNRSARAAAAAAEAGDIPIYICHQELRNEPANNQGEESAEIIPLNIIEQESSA
T1 sequence (looked up) 2: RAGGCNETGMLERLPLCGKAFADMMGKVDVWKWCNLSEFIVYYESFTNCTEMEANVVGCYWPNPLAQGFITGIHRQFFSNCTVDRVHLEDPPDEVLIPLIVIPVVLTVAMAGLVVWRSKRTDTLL

T2: human calcitonin receptor (human, UniProt P30988 25-474)
T2 sequence (looked up): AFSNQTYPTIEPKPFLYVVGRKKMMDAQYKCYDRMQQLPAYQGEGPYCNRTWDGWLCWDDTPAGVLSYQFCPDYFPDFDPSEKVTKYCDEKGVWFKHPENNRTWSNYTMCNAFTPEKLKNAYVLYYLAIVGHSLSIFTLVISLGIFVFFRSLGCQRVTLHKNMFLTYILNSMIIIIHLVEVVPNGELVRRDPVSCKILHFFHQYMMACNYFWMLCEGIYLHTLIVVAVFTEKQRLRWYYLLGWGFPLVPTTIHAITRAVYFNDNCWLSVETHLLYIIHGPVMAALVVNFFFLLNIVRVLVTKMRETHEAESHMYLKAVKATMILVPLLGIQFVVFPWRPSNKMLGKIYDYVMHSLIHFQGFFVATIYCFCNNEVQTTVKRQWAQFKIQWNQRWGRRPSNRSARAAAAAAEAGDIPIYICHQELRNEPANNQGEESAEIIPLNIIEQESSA

B1: N^ε1-[(4S)--4-carboxy-4-(19-carboxynonadecanoylamino)butanoyl]-[Glu14,Arg17,Pro21,Pro27,Pro37]-h-amylin (peptide)
peptide: K([γGlu-C20 diacid])CNTATCATQRLAEFLRHSSPNFGAIPSSTNVGSNTP-NH2
modifications: disulfide 2-7; N-terminus assumed
SMILES: CC[C@H](C)[C@H](NC(=O)[C@H](C)NC(=O)CNC(=O)[C@H](Cc1ccccc1)NC(=O)[C@H](CC(N)=O)NC(=O)[C@@H]1CCCN1C(=O)[C@H](CO)NC(=O)[C@H](CO)NC(=O)[C@H](Cc1c[nH]cn1)NC(=O)[C@H](CCCNC(=N)N)NC(=O)[C@H](CC(C)C)NC(=O)[C@H](Cc1ccccc1)NC(=O)[C@H](CCC(=O)O)NC(=O)[C@H](C)NC(=O)[C@H](CC(C)C)NC(=O)[C@H](CCCNC(=N)N)NC(=O)[C@H](CCC(N)=O)NC(=O)[C@@H](NC(=O)[C@H](C)NC(=O)[C@@H]1CSSC[C@H](NC(=O)[C@@H](N)CCCCNC(=O)CC[C@H](NC(=O)CCCCCCCCCCCCCCCCCCC(=O)O)C(=O)O)C(=O)N[C@@H](CC(N)=O)C(=O)N[C@@H]([C@@H](C)O)C(=O)N[C@@H](C)C(=O)N[C@@H]([C@@H](C)O)C(=O)N1)[C@@H](C)O)C(=O)N1CCC[C@H]1C(=O)N[C@@H](CO)C(=O)N[C@@H](CO)C(=O)N[C@H](C(=O)N[C@@H](CC(N)=O)C(=O)N[C@H](C(=O)NCC(=O)N[C@@H](CO)C(=O)N[C@@H](CC(N)=O)C(=O)N[C@H](C(=O)N1CCC[C@H]1C(N)=O)[C@@H](C)O)C(C)C)[C@@H](C)O
notes: also called compound 12
B2: N^α1 N^α1-[(4S)-4-carboxy-4-[[(4S)-4-carboxy-4-(19-carboxynonadecanoylamino)butanoyl]amino]butanoyl]-[Glu14,Arg17,Pro21,Pro27]-h-amylin (peptide)
peptide: {C20 diacid-γGlu-γGlu}-KCNTATCATQRLAEFLRHSSPNFGAIPSSTNVGSNTY-NH2
modifications: disulfide 2-7
SMILES: CC[C@H](C)[C@H](NC(=O)[C@H](C)NC(=O)CNC(=O)[C@H](Cc1ccccc1)NC(=O)[C@H](CC(N)=O)NC(=O)[C@@H]1CCCN1C(=O)[C@H](CO)NC(=O)[C@H](CO)NC(=O)[C@H](Cc1c[nH]cn1)NC(=O)[C@H](CCCNC(=N)N)NC(=O)[C@H](CC(C)C)NC(=O)[C@H](Cc1ccccc1)NC(=O)[C@H](CCC(=O)O)NC(=O)[C@H](C)NC(=O)[C@H](CC(C)C)NC(=O)[C@H](CCCNC(=N)N)NC(=O)[C@H](CCC(N)=O)NC(=O)[C@@H](NC(=O)[C@H](C)NC(=O)[C@@H]1CSSC[C@H](NC(=O)[C@H](CCCCN)NC(=O)CC[C@H](NC(=O)CC[C@H](NC(=O)CCCCCCCCCCCCCCCCCCC(=O)O)C(=O)O)C(=O)O)C(=O)N[C@@H](CC(N)=O)C(=O)N[C@@H]([C@@H](C)O)C(=O)N[C@@H](C)C(=O)N[C@@H]([C@@H](C)O)C(=O)N1)[C@@H](C)O)C(=O)N1CCC[C@H]1C(=O)N[C@@H](CO)C(=O)N[C@@H](CO)C(=O)N[C@H](C(=O)N[C@@H](CC(N)=O)C(=O)N[C@H](C(=O)NCC(=O)N[C@@H](CO)C(=O)N[C@@H](CC(N)=O)C(=O)N[C@H](C(=O)N[C@@H](Cc1ccc(O)cc1)C(N)=O)[C@@H](C)O)C(C)C)[C@@H](C)O
notes: also called compound 15

Tests used:
[1] = molecular target: T1, human amylin receptor (amylin 3(a) …); assay: cell-based or functional assay
[2] = molecular target: T2, human calcitonin receptor; assay: cell-based or functional assay
[3] = molecular target: T1, human amylin receptor (amylin 3(a) …); assay: SPA competition binding, membranes of Amylin 3(a)/CRE-luc BHK cells, displacement of 125I-rat amylin (Assay V)
Summary of the method: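 SPA beads + BHK amylin 3(a)/CRE-luc membranes, 35 ng/μL final; buffer 50 mM Hepes pH 7.4, 1 mM CaCl2, 5 mM MgCl₂, 0.1% OA, 0.02% Tween20. 120 min, 25° C, shaken; scintillation count. IC₅₀ by one-site binding competition fit, taken as receptor affinity.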

Row | Binder | hAmylin-R funct. EC50 [1] [nM] | Ratio hCT/hAmylin funct. (hCTR EC50 against hAmylin-R EC50) [2] | hCTR funct. EC50 [2] [nM] | IC50 [3] [nM]
1 | B1 | 0.101 | 1.8 | 0.185 | 0.142
2 | B2 | 0.386 | 8.9 | 3.43 | 0.597

Source: patent publication US20140087995A1 (published 2014)
